Measured values as given in patent US20240270821A1, “GIP/GLP1/GCG TRI-RECEPTOR AGONISTS AND USES THEREOF” (priority 2023, published 2024).
Non-standard residues stand in square brackets, D forms with d. No end group written: not given here. αMePhe(2-F) = C[C@](N)(Cc1ccccc1F)C(=O)O; Aib = CC(C)(N)C(=O)O

T1: human GIP receptor (human) (UniProt P48546)
T1 sequence (looked up): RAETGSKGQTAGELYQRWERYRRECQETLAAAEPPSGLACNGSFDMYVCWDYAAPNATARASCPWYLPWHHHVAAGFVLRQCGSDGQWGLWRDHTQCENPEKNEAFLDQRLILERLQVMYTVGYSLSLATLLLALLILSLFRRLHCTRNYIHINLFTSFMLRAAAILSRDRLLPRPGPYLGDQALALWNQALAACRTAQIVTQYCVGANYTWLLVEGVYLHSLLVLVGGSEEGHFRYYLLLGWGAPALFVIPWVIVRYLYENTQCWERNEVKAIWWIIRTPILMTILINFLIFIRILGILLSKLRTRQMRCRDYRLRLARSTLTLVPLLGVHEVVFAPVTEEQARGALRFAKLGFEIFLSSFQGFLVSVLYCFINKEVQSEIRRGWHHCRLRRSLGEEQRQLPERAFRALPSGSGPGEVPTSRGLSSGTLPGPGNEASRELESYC


Columns and labels:
Assay in all cases: cell-based or functional assay
[1] = biological target: human glucagon receptor (human) (UniProt P47871)
hGLP-1R = hGLP-1R (Homo sapiens, UniProt P43220)
[2] = biological target: T1, human GIP receptor (human)

Chain of hGLP-1R (P43220 24-463): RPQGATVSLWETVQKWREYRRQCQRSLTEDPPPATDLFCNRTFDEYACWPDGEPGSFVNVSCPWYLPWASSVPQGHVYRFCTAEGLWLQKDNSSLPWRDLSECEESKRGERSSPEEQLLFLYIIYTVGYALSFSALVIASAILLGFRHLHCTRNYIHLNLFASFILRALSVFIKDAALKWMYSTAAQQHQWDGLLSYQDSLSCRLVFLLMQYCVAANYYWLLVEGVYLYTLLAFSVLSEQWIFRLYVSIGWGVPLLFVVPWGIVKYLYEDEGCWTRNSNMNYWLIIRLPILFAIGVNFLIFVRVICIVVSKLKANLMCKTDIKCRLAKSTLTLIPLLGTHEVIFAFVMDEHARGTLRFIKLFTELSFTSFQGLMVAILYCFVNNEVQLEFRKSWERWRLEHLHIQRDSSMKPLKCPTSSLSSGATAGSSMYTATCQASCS
Chain of human glucagon receptor (human) (P47871 26-477): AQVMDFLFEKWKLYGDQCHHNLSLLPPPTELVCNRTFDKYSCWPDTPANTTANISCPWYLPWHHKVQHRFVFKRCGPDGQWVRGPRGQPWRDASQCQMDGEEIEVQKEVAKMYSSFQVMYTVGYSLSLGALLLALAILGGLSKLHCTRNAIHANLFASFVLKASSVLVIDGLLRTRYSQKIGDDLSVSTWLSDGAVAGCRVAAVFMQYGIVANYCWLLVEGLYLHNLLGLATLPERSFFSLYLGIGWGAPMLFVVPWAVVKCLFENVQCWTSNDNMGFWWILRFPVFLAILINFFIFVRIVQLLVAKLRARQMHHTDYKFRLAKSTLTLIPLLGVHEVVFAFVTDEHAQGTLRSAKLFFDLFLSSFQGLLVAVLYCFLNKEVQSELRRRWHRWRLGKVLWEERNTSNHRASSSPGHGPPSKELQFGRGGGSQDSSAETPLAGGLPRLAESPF

| Binder | Relative cAMP EC50 [1] [nM] | cAMP Rel EC50, nM (1% HSA) [1] [nM] | Relative cAMP EC50 (hGLP-1R) [nM] | cAMP Rel EC50, nM (1% HSA) (hGLP-1R) [nM] | Relative cAMP EC50 [2] [nM] | cAMP Rel EC50, nM (1% HSA) [2] [nM] | cAMP Rel EC50 (in the presence of 1% HSA) [1] [nM] | cAMP Rel EC50 (in the presence of 1% HSA) (hGLP-1R) [nM] | cAMP Rel EC50 (in the presence of 1% HSA) [2] [nM] |
| --- | --- | --- | --- | --- | --- | --- | --- | --- | --- |
| YXQGTXTSDYSIXLDKKAQXAFIEYLEEGGPSSGAPPPE (synthetic construct; SITE 2: note = 2-Aminoisobutyric Acid; SITE 6: note = alpha-methyl-2-fluoro-L-phenylalanine; SITE 13: note = alpha-methyl-leucine; SITE 17: note = Lysine is chemically modified through conjugation of the epsilon-amino group of the Lysine side chain with (2-[2-(2-Amino-ethoxy)-et)) [Example 400] | 2.53 | 265 | 0.253 | 29.1 | 0.0158 | 3.86 |  |  |  |
| YXQGTXTSDXSILLDKKAQXAFIEYLEEGGPSSGAPPPS (not fully specified; synthetic construct; SITE 2: note = 2-Aminoisobutyric Acid; SITE 6: note = alpha-methyl-2-fluoro-L-phenylalanine; SITE 10: note = 3-(4-Pyridyl)-L-alanine; SITE 17: note = Lysine is chemically modified through conjugation of the epsilon-amino group of the Lysine side chain with (gamma-Glu)2-CO-(CH2)1) [Example 413] | 6.3 | 629 | 0.564 | 41.4 | 0.0881 | 23.5 |  |  |  |
| YXQGTXTSDYSSLLDKKAQXAFIEYLEEGGPSSGAPPPS (synthetic construct; SITE 2: note = 2-Aminoisobutyric Acid; SITE 6: note = alpha-methyl-2-fluoro-L-phenylalanine; SITE 17: note = Lysine is chemically modified through conjugation of the epsilon-amino group of the Lysine side chain with (2-[2-(2-Amino-ethoxy)-ethoxy]-acetyl)-(gamma-Glu)-CO-(CH2) 16-) [Example 409] | 7.92 | 1190 | 0.484 | 41.7 | 0.363 | 66.6 |  |  |  |
| YXQGTXTSDYSILLDKKAQXAFIEYLEEGGPSSGAPPPS (synthetic construct; SITE 2: note = 2-Aminoisobutyric Acid; SITE 6: note = alpha-methyl-2-fluoro-L-phenylalanine; SITE 17: note = Lysine is chemically modified through conjugation of the epsilon-amino group of the Lysine side chain with (gamma-Glu)2-CO-(CH2)16-CO2H; SITE 20: note = 2-Aminoisobutyric) [Example 406] | 1.23 | 254 | 0.208 | 27.8 | 0.0233 | 10.5 |  |  |  |
| YXQGTXTSDYSIXLDXKAQXAFIEYLEEGGPSSGAPPPE (not fully specified; synthetic construct; SITE 2: note = 2-Aminoisobutyric Acid; SITE 6: note = alpha-methyl-L-phenylalanine; SITE 13: note = alpha-methyl-leucine; SITE 16: note = L-ornithine; SITE 17: note = Lysine is chemically modified through conjugation of the epsilon-amino group of the Lysine side chain with (2-[2)) [Example 397] | 5.22 | 1110 | 0.2 | 34.9 | 0.0247 | 10.1 |  |  |  |
| YXQGTXTSDYSIXLDKKAQXAFIEYLEEGGPSSGAPPPE (synthetic construct; SITE 2: note = 2-Aminoisobutyric Acid; SITE 6: note = alpha-methyl-L-phenylalanine; SITE 13: note = alpha-methyl-leucine; SITE 17: note = Lysine is chemically modified through conjugation of the epsilon-amino group of the Lysine side chain with (2-[2-(2-Amino-ethoxy)-ethoxy]-ace)) [Example 396] | 4.99 | 468 | 0.293 | 38.2 | 0.024 | 9.5 |  |  |  |
| YXQGTXTSDYSIXLDKKAQXAFIEYLEEGGPSSGAPPPS (synthetic construct; SITE 2: note = 2-Aminoisobutyric Acid; SITE 6: note = alpha-methyl-L-phenylalanine; SITE 13: note = alpha-methyl-leucine; SITE 17: note = Lysine is chemically modified through conjugation of the epsilon-amino group of the Lysine side chain with (2-[2-(2-Amino-ethoxy)-ethoxy]-ace)) [Example 394] |  | 1090 |  | 33.2 |  | 7.22 |  |  |  |
| YXQGTXTSDYSILLDKKAQXAFIEYLEEGGPSSGAPPPE (synthetic construct; SITE 2: note = 2-Aminoisobutyric Acid; SITE 6: note = alpha-methyl-2-fluoro-L-phenylalanine; SITE 17: note = Lysine is chemically modified through conjugation of the epsilon-amino group of the Lysine side chain with (2-[2-(2-Amino-ethoxy)-ethoxy]-acetyl)-(gamma-Glu)-CO-(CH2) 16-) [Example 408] | 1.93 | 472 | 0.253 | 37.9 | 0.0329 | 15.3 |  |  |  |
| YXQGTFTSDFSKXLDKKAQXAFIEYLLEGGPSSGEPPPTEG (synthetic construct; SITE 2: note = 2-Aminoisobutyric Acid; SITE 13: note = alpha-methyl-leucine; SITE 17: note = Lysine is chemically modified through conjugation of the epsilon-amino group of the Lysine side chain with (2-[2-(2-Amino-ethoxy)-ethoxy]-acetyl)-(gamma-Glu)-CO-(CH2) 18-CO2H; SITE 20: n) [Example 36] | 4.32 |  | 3.57 |  | 0.482 |  | 1330 | 1360 | 170 |
| YXQGTFTSDFSKXLDKKAQXAFIEYLAAGGPSSGEPPPSGE (synthetic construct; SITE 2: note = 2-Aminoisobutyric Acid; SITE 13: note = alpha-methyl-leucine; SITE 17: note = Lysine is chemically modified through conjugation of the epsilon-amino group of the Lysine side chain with (epsilon-K)2-(gamma-Glu)-CO-(CH2)18-CO2H; SITE 20: note = 2-Aminoisobutyric Aci) [Example 405] | 15.5 | 2530 | 1.48 | 285 | 0.28 | 32.1 |  |  |  |
| Y[Aib]QGT[αMePhe(2-F)]TSDYSILLDAKAFIEYLEEGGPSSGAPPPSEG-NH2 (not fully specified (residue 17)) [Example 410] | 9.94 | 1950 | 0.354 | 84.4 | 0.0708 | 49.3 |  |  |  |
